The text below walks through data of PMC11209852.

This assay concerns the target GST-fused human AP-2 alpha-C (AP2A2) appendage domain, Ser923Gly (human) (UniProt O94973). The experiment in a line: pull-down.
Chain of UniProt O94973 (O94973 whole entry S923G, the tested form may be a part): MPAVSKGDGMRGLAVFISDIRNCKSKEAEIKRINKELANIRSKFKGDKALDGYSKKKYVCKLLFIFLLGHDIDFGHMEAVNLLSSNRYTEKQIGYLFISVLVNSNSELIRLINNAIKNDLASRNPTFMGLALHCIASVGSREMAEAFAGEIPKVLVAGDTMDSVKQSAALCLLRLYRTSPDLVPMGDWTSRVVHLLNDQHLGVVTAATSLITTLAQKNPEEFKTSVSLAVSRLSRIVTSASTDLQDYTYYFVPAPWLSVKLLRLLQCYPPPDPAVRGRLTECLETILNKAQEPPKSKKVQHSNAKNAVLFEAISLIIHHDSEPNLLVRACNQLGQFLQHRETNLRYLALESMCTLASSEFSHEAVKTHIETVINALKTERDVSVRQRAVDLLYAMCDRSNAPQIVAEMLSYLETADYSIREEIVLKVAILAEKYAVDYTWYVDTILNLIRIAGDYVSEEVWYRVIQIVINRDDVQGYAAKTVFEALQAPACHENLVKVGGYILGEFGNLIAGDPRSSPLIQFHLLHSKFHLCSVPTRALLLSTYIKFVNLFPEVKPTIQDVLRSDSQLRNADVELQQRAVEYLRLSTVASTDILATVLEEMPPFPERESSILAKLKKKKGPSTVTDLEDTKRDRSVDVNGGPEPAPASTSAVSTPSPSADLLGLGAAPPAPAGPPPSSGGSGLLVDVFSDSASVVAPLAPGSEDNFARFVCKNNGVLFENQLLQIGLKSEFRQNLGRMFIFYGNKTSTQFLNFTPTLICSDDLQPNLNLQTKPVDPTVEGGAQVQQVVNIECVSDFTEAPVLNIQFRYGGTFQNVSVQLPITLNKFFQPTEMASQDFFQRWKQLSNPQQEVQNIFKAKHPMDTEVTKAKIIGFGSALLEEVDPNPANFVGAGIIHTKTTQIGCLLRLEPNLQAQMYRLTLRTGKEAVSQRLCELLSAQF

The molecule “amphiphysin (from UniProt P49418 1-695) (natural protein)” gave a percent reduction of pulled-down signal against wildtype AP2A2-ear of 20%.

B1: auxilin (natural protein)
chain: MKDSENKGASSPDMEPSYGGGLFDMVKGGAGRLFSNLKDNLKDTLKDTSSRVIQSVTSYTKGDLDFTYVTSRIIVMSFPLDNVDIGFRNQVDDIRSFLDSRHLDHYTVYNLSPKSYRTAKFHSRVSECSWPIRQAPSLHNLFAVCRNMYNWLLQNPKNVCVVHCLDGRAASSILVGAMFIFCNLYSTPGPAIRLLYAKRPGIGLSPSHRRYLGYMCDLLADKPYRPHFKPLTIKSITVSPIPFFNKQRNGCRPYCDVLIGETKIYSTCTDFERMKEYRVQDGKIFIPLNITVQGDVVVSMYHLRSTIGSRLQAKVTNTQIFQLQFHTGFIPLDTTVLKFTKPELDACDVPEKYPQLFQVTLDVELQPHDKVIDLTPPWEHYCTKDVNPSILFSSHQEHQDTLALGGQAPIDIPPDNPRHYGQSGFFASLCWQDQKSEKSFCEEDHAALVNQESEQSDDELLTLSSPHGNANGDKPHGVKKPSKKQQEPAAPPPPEDVDLLGLEGSAMSNSFSPPAAPPTNSELLSDLFGGGGAAGPTQAGQSGVEDVFHPSGPASTQSTPRRSATSTSASPTLRVGEGATFDPFGAPSKPSGQDLLGSFLNTSSASSDPFLQPTRSPSPTVHASSTPAVNIQPDVSGGWDWHAKPGGFGMGSKSAATSPTGSSHGTPTHQSKPQTLDPFADLGTLGSSSFASKPTTPTGLGGGFPPLSSPQKASPQPMGGGWQQGGAYNWQQPQPKPQPSMPHSSPQNRPNYNVSFSAMPGGQNERGKGSSNLEGKQKAADFEDLLSGQGFNAHKDKKGPRTIAEMRKEEMAKEMDPEKLKILEWIEGKERNIRALLSTMHTVLWAGETKWKPVGMADLVTPEQVKKVYRKAVLVVHPDKATGQPYEQYAKMIFMELNDAWSEFENQGQKPLY
With B1, the percent reduction of pulled-down signal against wildtype AP2A2-ear amounted to 70%.

B2: EPS15 (natural protein)
chain: MAAAAQLSLTQLSSGNPVYEKYYRQVDTGNTGRVLASDAAAFLKKSGLPDLILGKIWDLADTDGKGILNKQEFFVALRLVACAQNGLEVSLSSLNLAVPPPRFHDTSSPLLISGTSAAELPWAVKPEDKAKYDAIFDSLSPVNGFLSGDKVKPVLLNSKLPVDILGRVWELSDIDHDGMLDRDEFAVAMFLVYCALEKEPVPMSLPPALVPPSKRKTWVVSPAEKAKYDEIFLKTDKDMDGFVSGLEVREIFLKTGLPSTLLAHIWSLCDTKDCGKLSKDQFALAFHLISQKLIKGIDPPHVLTPEMIPPSDRASLQKNIIGSSPVADFSAIKELDTLNNEIVDLQREKNNVEQDLKEKEDTIKQRTSEVQDLQDEVQRENTNLQKLQAQKQQVQELLDELDEQKAQLEEQLKEVRKKCAEEAQLISSLKAELTSQESQISTYEEELAKAREELSRLQQETAELEESVESGKAQLEPLQQHLQDSQQEISSMQMKLMEMKDLENHNSQLNWCSSPHSILVNGATDYCSLSTSSSETANLNEHVEGQSNLESEPIHQESPARSSPELLPSGVTDENEVTTAVTEKVCSELDNNRHSKEEDPFNVDSSSLTGPVADTNLDFFQSDPFVGSDPFKDDPFGKIDPFGGDPFKGSDPFASDCFFRQSTDPFATSSTDPFSAANNSSITSVETLKHNDPFAPGGTVVAASDSATDPFASVFGNESFGGGFADFSTLSKVNNEDPFRSATSSSVSNVVITKNVFEETSVKSEDEPPALPPKIGTPTRPCPLPPGKRSINKLDSPDPFKLNDPFQPFPGNDSPKEKDPEIFCDPFTSATTTTNKEADPSNFANFSAYPSEEDMIEWAKRESEREEEQRLARLNQQEQEDLELAIALSKSEISEA
B2 had a percent reduction of pulled-down signal against wildtype AP2A2-ear of 30%.

B3: AP180 (natural protein)
chain: MSGQTLTDRIAAAQYSVTGSAVARAVCKATTHEVMGPKKKHLDYLIQATNETNVNIPQMADTLFERATNSSWVVVFKALVTTHHLMVHGNERFIQYLASRNTLFNLSNFLDKSGSHGYDMSTFIRRYSRYLNEKAFSYRQMAFDFARVKKGADGVMRTMAPEKLLKSMPILQGQIDALLEFDVHPNELTNGVINAAFMLLFKDLIKLFACYNDGVINLLEKFFEMKKGQCKDALEIYKRFLTRMTRVSEFLKVAEQVGIDKGDIPDLTQAPSSLMETLEQHLNTLEGKKPGNNEGSGAPSPLSKSSPATTVTSPNSTPAKTIDTSPPVDLFATASAAVPVSTSKPSSDLLDLQPDFSSGGAAAAAAPAPPPPAGGATAWGDLLGEDSLAALSSVPSEAQISDPFAPEPTPPTTTAEIATASASASTTTTVTAVTAEVDLFGDAFAASPGEAPAASEGAAAPATPTPVAAALDACSGNDPFAPSEGSAEAAPELDLFAMKPPETSVPVVTPTASTAPPVPATAPSPAPAVAAAAAATTAATAAATTTTTTSAATATTAPPALDIFGDLFESTPEVAAAPKPDAAPSIDLFSTDAFSSPPQGASPVPESSLTADLLSVDAFAAPSPATTASPAKVDSSGVIDLFGDAFGSSASEPQPASQAASSSSASADLLAGFGGSFMAPSPSPVTPAQNNLLQPNFEAAFGTTPSTSSSSSFDPSVFDGLGDLLMPTMAPAGQPAPVSMVPPSPAMAASKALGSDLDSSLASLVGNLGISGTTTKKGDLQWNAGEKKLTGGANWQPKVAPATWSAGVPPSAPLQGAVPPTSSVPPVAGAPSVGQPGAGFGMPPAGTGMPMMPQQPVMFAQPMMRPPFGAAAVPGTQLSPSPTPASQSPKKPPAKDPLADLNIKDFL
As for B3, the percent reduction of pulled-down signal against wildtype AP2A2-ear came out at 80%.
